We go through 40 molecules from patent publication US20210145976A1.

Positions count from the first letter of the chain named.

The labels stand for the following.
B1: SEQ ID NO 247 (designed binder)
chain: MLPAPKNLVVSRVTEDSARLSWTAPDAAFDSFYIEWTYKGEAIVLTVPGSERSYDLTGLKPGTEYFVGIPGVKGGKSSYPLSAIFTT
B2: SEQ ID NO 252 (designed binder)
chain: MLPAPKNLVVSRVTEDSARLSWTAPDAAFDSFDIGYTEYGGYGEAIVLTVPGSERSYDLTGLKPGTEYWVLIQGVKGGGSSVPLSAIFTT
B3: SEQ ID NO 255 (designed binder)
chain: B2 chain with G35E, T37Y, Y39L, G40I, Y42R, L71G, Q73Y, G79W, S80L, V82R
B4: SEQ ID NO 256 (designed binder)
chain: MLPAPKNLVVSRVTEDSARLSWTAPDAAFDSFHIVYHEPRPSGEAIVLTVPGSERSYDLTGLKPGTEYEVGIVGVKGGDLSVPLSAIFTT
B5: SEQ ID NO 257 (designed binder)
chain: B4 chain with G74S
B6: SEQ ID NO 278 (designed binder)
chain: B4 chain with H33P, V35A, H37A, S42D, E69S, G71L, V73H, D79H, V82D
B7: SEQ ID NO 271 (designed binder)
chain: B4 chain with H33Y, V35P, H37A, P39T, P41D, S42D, E69S, G71L, V73H, V82S
B8: SEQ ID NO 245 (designed binder)
chain: MLPAPKNLVVSRITEDSARLSWTAPDAAFDSFGIAYNEGDHYGEAIVLTVPGSERSYDLTGLKPGTEYSVWIEGVKGGNLSYPLSAIFTT
B9: SEQ ID NO 246 (designed binder)
chain: B8 chain with I13V, G33T, G39Q, D40N, S69G, N79T, Y82W
B10: SEQ ID NO 241 (designed binder)
chain: MLPAPKNLVVSRVTEDSARLSWTAPDAAFDSFNIYYYEWFVSGEAIVLTVPGSERSYDLTGLKPGTEYFVDIDGVKGGYRSRPLSAIFTT
B11: SEQ ID NO 265 (designed binder)
chain: B10 chain with N33W, Y37I, W39T, F40S, V41H, S42Q, D71L, D73K, R80D, R82V
B12: SEQ ID NO 54 (designed binder)
chain: MLPAPKNLVVSRVTEDSARLSWTAPDAAFDSFQILYQENAFEGEAIVLTVPGSERSYDLTGLKPGTEYWVYIYGVKGGYPSVPLSAIFTT
B13: SEQ ID NO 272 (designed binder)
chain: MLPAPKNLVVSRVTEDSARLSWTAPDAAFDSFGIPYAESTPTGEAIVLTVPGSERSYDLTGLKPGTEYSVLIHGVKGGHLSDPLSAIFTT
B14: SEQ ID NO 275 (designed binder)
chain: B13 chain with G33L, P35A, S39V, P41L, T42H, H79R, L80N
B15: SEQ ID NO 269 (designed binder)
chain: MLPAPKNLVVSRVTEDSARLSWTAPDAAFDSFHINYAEVYTKGEAILLTVPGSERSYDLTGLKPGTEYEVYIPGVKGGPFSRPLNAQFTT
B16: SEQ ID NO 266 (designed binder)
chain: MLPAPKNLVVSRVTEDSARLSWTAPDAAFDSFMIRYQEGTRWGEAIVLTVPGSERSYDLTGLKPGTEYIVMIAGVKGGQISLPLSAIFTT
B17: SEQ ID NO 53 (designed binder)
chain: MLPAPKNLVVSRVTEDSARLSWTAPDAAFDSFFISYIEWWDLGEAIVLTVPGSERSYDLTGLKPGTEYHVEIFGVKGGTQSYPLSAIFTT
B18: SEQ ID NO 248 (designed binder)
chain: MGSLPAPKNLVVSRVTEDSARLSWTAPDAAFDSFAIPYAEPSPTGEAIVLTVPGSERSYDLTGLKPGTEYPVWIQGVKGGSPSAPLSAEFTT
B19: SEQ ID NO 250 (designed binder)
chain: MLPAPKNLVVSRVTEDSARLSWTAPDAAFDSFFIGYLEPYPPGEAIVLTVPGSERSYDLTGLKPGTEYAVEIAGVKGGLLSSPLSAISTT
B20: SEQ ID NO 254 (designed binder)
chain: B13 chain with G33F, S39P, T40S, F88S
B21: SEQ ID NO 263 (designed binder)
chain: B19 chain with Y40Q, A69N, E71T, A73Q, L79F, L80P, S82M
B22: SEQ ID NO 251 (designed binder)
chain: B19 chain with Y40Q, A69N, E71T, A73Q, L79F, L80P, S82M, S88V
B23: SEQ ID NO 244 (designed binder)
chain: MLPAPKNLVVSRVTEDSARLSWTAPDAAFDSFHIDYSEFHLRGEAIVLTVPGSERSYDLTGLKPGTEYLGIFGVKGGEQSGPLSAIFTT
B24: SEQ ID NO 260 (designed binder)
chain: MLPAPKNLVVSRVTEDSARLSWTAPDAAFDSFNISYYEYFVHGEAIVLTVPGSERSYDLTGLKPGTEYYVIDGVKGGDPSEPLSAIFTT
B25: SEQ ID NO 239 (designed binder)
chain: MLPAPKNLVVSRVTEDSARLSWTAPDAAFDSFAITYYEGRWRGEAIVLTVPGSERSYDLTGLKPGTEYGVPIRGVKGGTGSLPLSAIFTT
B26: SEQ ID NO 277 (designed binder)
chain: B25 chain with A33W, T35N, R40I, W41G, R42E, G69Y, P71D, R73S, T79S, G80Y
B27: SEQ ID NO 261 (designed binder)
chain: MLPAPKNLVVSRVTEDSARLSWTAPDAAFDSFTIVYGEWGVPGEAIVLTVPGSERSYDLTGLKPGTEYDVWIEGVKGGDLSWPLSAIVTT
B28: SEQ ID NO 267 (designed binder)
chain: B27 chain with T33P, G37S, W39I, G40H, P42I, D79H, W82E, V88F
B29: SEQ ID NO 268 (designed binder)
chain: B27 chain with W39A, V41A, P42F, W71L, D79N, V88F
B30: SEQ ID NO 240 (designed binder)
chain: MLPAPKNLVVSRVTEDSARLSWTAPDAAFDSFRIKYLEWWLGGEAIVLTVPGSERSYDLTGLKPGTEYWVDIQGVKGGVLSWPLSAIFTT
B31: SEQ ID NO 276 (designed binder)
chain: B30 chain with K35D, W39L, W40T, L41S, G42L, W69P, D71P, Q73L, V79L, L80S
B32: SEQ ID NO 52 (designed binder)
chain: B17 chain with F33K, I37Q, D41E, L42D, H69W, E71N, F73S, T79V
B33: SEQ ID NO 258 (designed binder)
chain: B13 chain with G33F, S39P, T40S, S69D, L71W, H73E, H79V, D82W
B34: SEQ ID NO 242 (designed binder)
chain: B30 chain with R33P, L41S, G42W, W69R, D71P, Q73S, V79G, L80M, W82G
B35: SEQ ID NO 264 (designed binder)
chain: B30 chain with L37Q, L41V, G42E, W69V, D71Q, Q73A, V79L, L80S, W82Y
B36: SEQ ID NO 51 (designed binder)
chain: B17 chain with S35K, D41A, L42D, H69L, F73Y, T79K, Q80W, Y82W
B37: SEQ ID NO 253 (designed binder)
chain: MLPAPKNLVVSRVTEDSARLSWTAPDAAFDSFTIEYWETIGGGEAIVLTVPGSERSYDLTGLKPGTEYYVGIYGVKGGWWSRPLSAIFTT
B38: SEQ ID NO 262 (designed binder)
chain: B37 chain with T33A, W37F, T39Y, I40T, G42E, W79Y, W80L
B39: SEQ ID NO 259 (designed binder)
chain: B37 chain with W37F, T39F, I40V, G41D, G42A, Y69W, G71E, Y73W, W79S, R82K
B40: SEQ ID NO 274 (designed binder)
chain: MLPAPKNLVVSRVTEDSVRLSWTAPDAAFDSFAISYEEWWVHGEAIVLTVPGSERSYDLTGLKPGTEYSVVIPGVKGGLYSWTLSAISTT

The experiment deals with human serum albumin (human) (UniProt P02768). Description: screening ELISA. (In general: In an ELISA, binding on a coated surface is turned into a signal by an enzyme label.)
Sequence of human serum albumin (human) (P02768 25-609 limits assumed): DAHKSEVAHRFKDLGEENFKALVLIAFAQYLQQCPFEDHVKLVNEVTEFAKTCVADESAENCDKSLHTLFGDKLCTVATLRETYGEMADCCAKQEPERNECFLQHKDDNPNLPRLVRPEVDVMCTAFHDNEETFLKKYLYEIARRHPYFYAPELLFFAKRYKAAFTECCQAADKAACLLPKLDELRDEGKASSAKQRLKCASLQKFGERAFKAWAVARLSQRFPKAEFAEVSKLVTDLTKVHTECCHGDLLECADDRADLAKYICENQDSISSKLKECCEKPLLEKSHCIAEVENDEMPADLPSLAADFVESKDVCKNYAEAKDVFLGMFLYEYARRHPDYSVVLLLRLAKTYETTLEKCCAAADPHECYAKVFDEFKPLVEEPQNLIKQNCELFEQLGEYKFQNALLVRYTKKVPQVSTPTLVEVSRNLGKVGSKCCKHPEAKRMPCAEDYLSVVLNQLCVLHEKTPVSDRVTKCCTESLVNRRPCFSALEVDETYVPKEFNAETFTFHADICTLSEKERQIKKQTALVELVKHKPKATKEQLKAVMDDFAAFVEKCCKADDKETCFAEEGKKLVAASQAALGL
Molecule B1 had an HSA of 53000. The same measure for B2: 2500; for B3: 4550; for B4: 2200.

In the case of B5, the HSA turned out to be 3950. B6: the HSA is 6500.

Turning to B7, the HSA worked out at 3050. As for B8, the HSA is 2900. Next, B9: 1400; B10: 2200. Molecule B11 had an HSA of 3950. Next, B12: 6160; B13: 8950.

B14 gave an HSA of 3800. Next, B15: 4150. The same measure for B16: 2650. In turn, B17 returned an HSA of 9120. The same measure for B18: 15100. For the molecule B19, the HSA turned out to be 18800.

B20: the HSA is 90000. As for B21, the HSA worked out at 20400.

Molecule B22 returned an HSA of 9650.

B23: the HSA came out at 1650.

Molecule B24 returned an HSA of 14400. B25 gave an HSA of 5050.

B26 came in with an HSA of 5200.

B27 displayed an HSA of 5550. Next, B28: 11900; B29: 2550; B30: 2050. B31 returned an HSA of 12400. The same measure for B32: 1760; for B33: 10600. In turn, B34 gave an HSA of 4900. The same measure for B35: 2550. Next, B36: 4240; B37: 2450; B38: 2350.

B39 registered an HSA of 2100. The same measure for B40: 11900.
